Values quoted from earlier work as cited in paper PMC11054419.
pKd: −log10 of the molar value.

What was measured:
TGF-β3 (Homo sapiens) = TGF-β3 (Homo sapiens) (UniProt P10600)
TGF-β2 (Homo sapiens) = TGF-β2 (Homo sapiens) (UniProt P61812)
TGF-β1 (Homo sapiens) = TGF-β1 (Homo sapiens) (UniProt P01137)
Sequence of TGF-β1 (Homo sapiens) (P01137 279-390): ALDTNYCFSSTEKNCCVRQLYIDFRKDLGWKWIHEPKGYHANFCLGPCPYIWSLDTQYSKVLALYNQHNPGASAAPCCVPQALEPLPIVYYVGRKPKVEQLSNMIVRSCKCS

Sequence of TβRIII (betaglycan) (Q03167 21-787): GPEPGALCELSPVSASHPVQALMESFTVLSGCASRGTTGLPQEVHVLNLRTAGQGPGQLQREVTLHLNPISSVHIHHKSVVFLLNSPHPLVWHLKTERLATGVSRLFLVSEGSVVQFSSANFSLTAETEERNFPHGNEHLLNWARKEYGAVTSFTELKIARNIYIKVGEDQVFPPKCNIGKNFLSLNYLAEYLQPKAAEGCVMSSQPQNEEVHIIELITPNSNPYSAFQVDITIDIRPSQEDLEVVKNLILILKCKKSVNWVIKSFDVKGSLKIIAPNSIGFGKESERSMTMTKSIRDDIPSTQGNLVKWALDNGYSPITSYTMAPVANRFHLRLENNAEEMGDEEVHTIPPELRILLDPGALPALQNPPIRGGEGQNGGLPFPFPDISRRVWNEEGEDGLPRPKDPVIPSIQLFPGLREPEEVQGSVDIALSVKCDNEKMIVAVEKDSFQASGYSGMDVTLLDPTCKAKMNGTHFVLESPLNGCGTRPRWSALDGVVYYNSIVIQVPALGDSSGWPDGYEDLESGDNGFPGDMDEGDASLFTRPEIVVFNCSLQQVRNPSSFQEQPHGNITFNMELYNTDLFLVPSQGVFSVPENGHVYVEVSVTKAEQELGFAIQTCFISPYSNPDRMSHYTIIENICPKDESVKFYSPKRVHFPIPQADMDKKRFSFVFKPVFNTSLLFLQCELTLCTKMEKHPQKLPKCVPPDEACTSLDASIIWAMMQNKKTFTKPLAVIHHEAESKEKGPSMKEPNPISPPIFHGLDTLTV
Sequence of TGF-β2 (Homo sapiens) (P61812 303-414): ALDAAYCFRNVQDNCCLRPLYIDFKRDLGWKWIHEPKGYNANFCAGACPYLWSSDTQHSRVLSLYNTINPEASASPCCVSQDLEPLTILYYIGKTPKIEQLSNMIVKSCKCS
Sequence of TGF-β3 (Homo sapiens) (P10600 301-412): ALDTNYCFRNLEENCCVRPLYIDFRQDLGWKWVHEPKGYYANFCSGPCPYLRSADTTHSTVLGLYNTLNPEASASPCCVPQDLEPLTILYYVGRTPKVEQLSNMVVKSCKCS

pKd (TGF-β3 (Homo sapiens)): 10.00 | pKd (TGF-β2 (Homo sapiens)): 10.00 | pKd (TGF-β1 (Homo sapiens)): 10.00
Substance: TβRIII (betaglycan) (from UniProt Q03167)
